Source: the supplement of paper PMC9732359
± gives the uncertainty stated by the source.

Assay: protein stability index of a GFP-peptide fusion (yeast GPS) (PSI 1-4); higher = more stable; sorted into four equal gates, so the index is relative within each strain
Method in brief: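 Tiled 17-residue yeast protein peptides were fused downstream of GFP in a plasmid that also expresses Cherry, and the pooled library was carried in yeast. Mid-log cultures in leucine-free medium were sorted into four equal gates by GFP/Cherry fluorescence ratio, and plasmids from each gate were PCR-amplified and Illumina-sequenced, with reads assigned to strains by barcodes. The protein stability index for each peptide was each gate's read frequency times its gate number, summed.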

Row | Sequence | protein stability index (doa10∆) | protein stability index (pdr5∆) | protein stability index (san1∆) | protein stability index (ubr1∆)
1 | EFCDEPSVGVKTMKTFV [RPB5] | 3.15 ± 0.12 | 3.56 ± 0.27 | – | –
2 | HDTLNNEIANSIIQSKQ [BRR2] | 2.76 ± 0.051 | 2.95 ± 0.064 | 2.88 ± 0.058 | 2.88 ± 0.052
3 | NYIINDIKKNNKIKLNI [SRB8] | 3.16 ± 0.096 | 3.1 ± 0.16 | 3.04 ± 0.2 | 3.35 ± 0.2
4 | SSVVSEPKKPSFTFASS [YOR098C/NUP1] | 3 ± 0.049 | 3.12 ± 0.038 | 3.01 ± 0.044 | 2.92 ± 0.034
5 | KISEGSAKPTFSFSKSE [YOR098C/NUP1] | 1.75 ± 0.11 | 1.92 ± 0.17 | 2.11 ± 0.2 | 1.77 ± 0.11
6 | APNTLTNILISPLNTTT [YML103C/NUP188] | 2.23 ± 0.062 | 2.13 ± 0.057 | 2.03 ± 0.086 | 1.82 ± 0.045
7 | VRQLYKGKKYQPKDLRA [RPL35A] | 3.28 ± 0.21 | 3.17 ± 0.12 | 2.59 ± 0.098 | 2.92 ± 0.12
8 | RLFNVVVQDSQTATQLL [SMC2] | 2.94 ± 0.07 | 2.79 ± 0.11 | 2.61 ± 0.1 | 2.44 ± 0.079
9 | TPLQSQLNLNNLTPANI [PGD1] | 2.98 ± 0.064 | 3.11 ± 0.053 | 2.99 ± 0.039 | 3.01 ± 0.04
10 | MEDPPSTVSGELNDNPA [YMR153W/NUP53] | 2.45 ± 0.081 | 2.81 ± 0.054 | 2.84 ± 0.077 | 2.83 ± 0.051
11 | DIQAMCTEAGLLALRER [RPT2] | 2.65 ± 0.088 | 3.33 ± 0.12 | 3.33 ± 0.047 | 3.26 ± 0.055
12 | SQLQPQPQPQPQQQQQH [YDL088C/ASM4] | 2.79 ± 0.087 | 2.95 ± 0.074 | 2.51 ± 0.13 | 2.88 ± 0.088
13 | STSGDPSEFHCLQDALD [SSN2] | 3.07 ± 0.16 | 3.1 ± 0.12 | 3.08 ± 0.068 | 3.43 ± 0.11
14 | KQNNKDFRTRYIDIRTN [MTW1] | 2.69 ± 0.07 | 2.65 ± 0.072 | 2.31 ± 0.1 | 2.62 ± 0.077
15 | YSKAAEPHAVSLAWSAD [ASC1] | 2.81 ± 0.19 | 2.87 ± 0.084 | 2.8 ± 0.065 | 2.72 ± 0.078
16 | FRGIIRSQDVRSTDRDR [CSL4] | – | – | – | 2.9 ± 0.2
17 | YLKESKRKYDEITHPPS [SWI3] | 2.59 ± 0.17 | 3.39 ± 0.15 | 3.02 ± 0.1 | 3.05 ± 0.11
18 | GQLEDFDSELIHLKQKL [SMC3] | – | 2.89 ± 0.16 | 3.23 ± 0.15 | 2.95 ± 0.17
19 | KYHNDLIEKEIQPKITE [SMC1] | 3.11 ± 0.13 | 3.05 ± 0.083 | 2.71 ± 0.073 | 3.07 ± 0.059
20 | VHSSSPSTSSNMDVGNP [GAL11] | 2.89 ± 0.071 | 2.75 ± 0.066 | 2.69 ± 0.075 | 3.14 ± 0.054
21 | IGHLITKEEIMHGLQAK [RPN5] | 2.91 ± 0.087 | 2.96 ± 0.091 | 2.94 ± 0.065 | 3.01 ± 0.067
22 | ERPAIEFETPTFLVSND [RPN14] | 3 ± 0.063 | 3.14 ± 0.056 | 2.81 ± 0.06 | 2.9 ± 0.089
23 | SPASGIVDKYIGESARI [RPT4] | 2.95 ± 0.27 | 2.84 ± 0.18 | 2.45 ± 0.16 | –
24 | MTIPHMKYAVSKTSENK [SIR2] | 3.14 ± 0.12 | 3.07 ± 0.16 | 2.75 ± 0.11 | 3.06 ± 0.1
25 | FPMKQGVLLPTRIKLLL [RPS6A] | 1.26 ± 0.053 | 1.39 ± 0.053 | 1.17 ± 0.094 | 1.29 ± 0.038

Row | Sequence | protein stability index (doa10∆) | protein stability index (pdr5∆) | protein stability index (san1∆) | protein stability index (ubr1∆)
26 | EIELKKLPKVYKRSIVR [SWI1] | 2.11 ± 0.069 | 1.86 ± 0.071 | 2.68 ± 0.099 | 2.91 ± 0.074
27 | RKSYKNQIADLSGKFST [ROX3] | 2.76 ± 0.082 | 2.94 ± 0.063 | 2.84 ± 0.06 | 2.92 ± 0.036
28 | TLLKNLRKKLNFKLCQA [YJR042W/NUP85] | 2.01 ± 0.12 | 2.12 ± 0.097 | 1.13 ± 0.23 | –
29 | VSDHLDAIYRELTKNPN [SMC1] | 2.87 ± 0.23 | – | – | –
30 | KVSPSMCGVIVKQYNKK [SIN4] | 3 ± 0.19 | 2.98 ± 0.15 | 2.58 ± 0.15 | 3.15 ± 0.14
31 | TSYKKWSFDLPEMSNLY [PRP8] | 2.6 ± 0.055 | 2.52 ± 0.05 | 2.26 ± 0.058 | 2.13 ± 0.044
32 | ALYVLRERIRKGLQIYQ [PRP8] | 2.54 ± 0.24 | 2.85 ± 0.11 | 2.26 ± 0.13 | 2.41 ± 0.29
33 | YMHDTELNYFVGCKNLE [GRR1] | 2.92 ± 0.085 | 2.78 ± 0.081 | 3.08 ± 0.079 | 3.21 ± 0.046
34 | AAQIFGSYNAFEPASRL [COR1] | 2.33 ± 0.07 | 1.55 ± 0.064 | 1.41 ± 0.16 | 1.51 ± 0.082
35 | NVNSRNQLVEPNRIKLS [SRB5] | 2.29 ± 0.061 | 2.43 ± 0.052 | 2.48 ± 0.059 | 2.19 ± 0.036
36 | RESFEDNVVRFLNEARD [RPO21] | 3.21 ± 0.15 | 2.98 ± 0.13 | 3.04 ± 0.16 | 2.92 ± 0.11
37 | VKLPRAFIDERASDLRM [RRP43] | – | 1.68 ± 0.26 | – | 1.69 ± 0.16
38 | YLNGTLIGSIRFPTKFV [RET1] | 2.04 ± 0.075 | 1.6 ± 0.053 | 1.64 ± 0.088 | 1.56 ± 0.044
39 | NMMNQVGEEETSQKMKK [SRP54] | 3.33 ± 0.11 | 3.39 ± 0.12 | 3.33 ± 0.076 | 3.23 ± 0.079
40 | RKVENIRTILVNIHHLL [MED7] | 1.55 ± 0.04 | 1.74 ± 0.041 | 1.5 ± 0.087 | 1.32 ± 0.033
41 | PETGDHVVGRIAEVGNK [RRP4] | 3.27 ± 0.076 | 3.44 ± 0.065 | 3.05 ± 0.1 | 3.08 ± 0.15
42 | AQHESFLRQKICLMTLI [RPN9] | 1.26 ± 0.072 | 1.33 ± 0.082 | 1.15 ± 0.11 | 1.56 ± 0.064
43 | RNSPFWWTNSHHDGKLW [PRP8] | 2.55 ± 0.069 | 2.85 ± 0.06 | 2.68 ± 0.041 | 2.78 ± 0.049
44 | APRQEISEEETTVKPLF [YAR002W/NUP60] | 3.22 ± 0.11 | 3.22 ± 0.11 | 3.23 ± 0.067 | 3.56 ± 0.17
45 | AFLALVDAGIALNSMCA [RRP46] | 2.27 ± 0.096 | 2.69 ± 0.11 | 1.7 ± 0.08 | 2.59 ± 0.076
46 | DEGLLNMVSLRGRNDTL [GRR1] | 2.55 ± 0.15 | 2.49 ± 0.14 | 2.51 ± 0.097 | 2.83 ± 0.17
47 | QSKKLIEEKLSSFSKKT [YIL149C/MLP2] | 2.9 ± 0.056 | 3 ± 0.049 | 2.98 ± 0.053 | 3.02 ± 0.045
48 | SLSDNDLAVCATIIGII [ECM29] | 2.71 ± 0.072 | 2.83 ± 0.056 | 2.78 ± 0.053 | 2.75 ± 0.038
49 | NSIRAREVENSVSLLNS [SMC1] | 2.55 ± 0.064 | 2.78 ± 0.06 | 3.09 ± 0.071 | 3.08 ± 0.069
50 | KSMITSEGEQKSAEGNN [YAR002W/NUP60] | 3.2 ± 0.047 | 3.19 ± 0.045 | 3.25 ± 0.035 | 3.17 ± 0.041
